The results in this text go back to publication PMC7702011 (2020).

Broadly, the Kd is the equilibrium constant for the complex coming apart.

The target of the assay is Recombinant NPTN polypeptide (UniProt Q9Y639 29-398). The assay is described as follows: MST.
Sequence of Recombinant NPTN polypeptide (Q9Y639 29-339): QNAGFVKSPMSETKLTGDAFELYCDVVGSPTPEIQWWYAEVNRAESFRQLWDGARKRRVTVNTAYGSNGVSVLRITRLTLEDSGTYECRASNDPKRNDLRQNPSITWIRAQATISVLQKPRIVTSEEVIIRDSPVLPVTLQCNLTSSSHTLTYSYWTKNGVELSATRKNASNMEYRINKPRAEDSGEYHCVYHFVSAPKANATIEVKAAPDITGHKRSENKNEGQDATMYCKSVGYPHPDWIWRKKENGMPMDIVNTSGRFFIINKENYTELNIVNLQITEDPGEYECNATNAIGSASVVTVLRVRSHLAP

B1: Recombinant MANF polypeptide, labeled with Alexa 647 (ligand)
chain: LRPGDCEVCISYLGRFYQDLKDRDVTFSPATIENELIKFCREARGKENRLCYYIGATDDAATKIINEVSKPLAHHIPVEKICEKLKKKDSQICELKYDKQIDLSTVDLKKLRVKELKKILDDWGETCKGCAEKSDYIRKINELMPKYAPKAASARTDL
modifications: fluorescently labeled with Alexa 647
Turning to B1, the dissociation constant Kd was found to be 104 nM.
